The source of these data is patent US7888090B2, “Mutants of O6-alkylguanine-DNA alkyltransferase” (Ecole Polytechnique Federale de Lausanne, priority 2004, dated 2011).

One data set deals with CHO cells. Nature of the data set: Selective labelling in cells after CPTG pre-incubation. It is filed as cell-based. The conditions noted are these: 5 µM CPTG 10 min, then 5 µM fluorescent substance 4 20 min. The source says:
In a further experiment, the mutant AGTM as described in Example 6 is amplified with the primers SEQ ID NO:34 and SEQ ID NO:36 and cloned between the NheI and BgIII sites of the vector pEGFP-Nuc. The […]-galactosidase gene is amplified with the primers SEQ ID NO:37 and SEQ ID NO:38 and subcloned into this vector via BgIII/BamHI to result in a vector with an AGTM-[…]-Gal fusion gene. The hAGT gene is amplified by the principle described under Example 1 with the primers SEQ ID NO:39, SEQ ID NO:40, SEQ ID NO:34, and SEQ ID NO:35 and cloned via NheI/BgIII into pEGFP-Nuc to result in an AGT-NLS3 fusion gene coding for the mutation Gly160Trp. After transient expression of both AGT mutants in parallel, the cells are incubated with 5 µM CPTG for 10 min and subsequently with 5 µM of substance 4 of Juillerat et al., Chem Biol 10:313-317, 2003, for 20 min. The cells are washed and imaged as described under Example 1.

Data set [1] in a line: Stability after reaction with BG-FL. It is filed as physicochemical. How it is done:
Stability before reaction is determined for the mutant AGT or for a mutant AGT fusion protein by incubating purified samples in buffered aqueous solution for up to two weeks at 4° C. and up to six months at −20° C. At several time points, aliquots are taken and concentration of reactive AGT is estimated as described by Juillerat et al., Chem Biol 10:313-317, 2003. Stability for wild type AGT and the AGT mutant after reaction with a labelled substrate and after subsequent separation from unreacted substrate is determined by quantifying the concentration of the label in the soluble fraction over up to two weeks at 4° C. and up to three months at −20° C.
Stability after reaction: The vector pBAD/H is A (Invitrogen) is modified by cloning synthetic oligonucleotides (SEQ ID NO:29 and SEQ ID NO:30) between the NcoI and HindIII sites to include a 12×His-tag and SbfI and AscI cloning sites. The gene of AGTM is amplified with primers SEQ ID NO:31 and SEQ ID NO:32 and cloned between the SbfI/AscI sites into this vector. Wild type AGT and mutant AGT (Lys125Ala, Ala127Thr, Arg128Ala, Asn157Gly, Ser159Glu) are amplified with primers SEQ ID NO:31 and SEQ ID NO:33 and cloned into this vector. Protein expression is carried out in E. coli strain Top 10. An exponentially growing culture is induced with 0.2% arabinose, and the expression is carried out for 16 hours at 28° C. The cells are lysed by adding buffer to 10 ml/g containing 0.5 M NaCl, 80 mM imidazole, 1% Triton, 250 µM PMSF, 1 mM […]-mercaptoethanol, 5 mg/ml lysozyme, 20 µg/ml DNase and stirring for 45 min. […]
The AGT proteins at 10 µM) are quantitatively reacted with fluorescein-modified O^6-benzyl-guanine (substance 5 of Juillerat et al, Chem Biol 10:313-317, 2003, BG-FL, 20 µM) and purified over a size exclusion column (Econopac 10 DG, Bio-Rad) and incubated for 7 days. […] The fluorescence of the supernatant is measured with a Victor2 fluorescence plate reader (Perkin Elmer, excitation/emission at 485/535 nm).

Data set [2] can be described thus: Activity assay with biotinylated O^6-benzylguanine (BG-Bt), Western blotting. It is filed as biochemical. The conditions noted are these: statement in words. In short, it runs like this:
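Purified mutant GST-AGT (0.2 μM) reacted with 1 μM biotinylated O^6-benzylguanine in 50 mM HEPES pH 7.2, 1 mM DTT at room temperature. Time-point aliquots quenched with O^6-benzylguanine in SDS buffer. Biotinylated protein detected by Western blot with neutravidin-peroxidase, band intensity quantified.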
(In general: Immunoblotting shows a protein as a band on a membrane.)

Data set [3] can be described thus: Solubility in vitro after overnight incubation. It is filed as physicochemical. The conditions noted are these: compared to wild type AGT. Here is the method: The in vitro solubility of wild type AGT and the AGT mutant is measured by determining the amount of protein that remains in the soluble fraction after overnight incubation of purified samples at 4° C. or up to 37° C. at one or several concentrations established in a suitable buffer (e.g. 100 mM NaCl, 20 mM Tris, pH 8.0, 20% glycerol, 1 mM DTT).
The solubility of AGTM or an AGTM fusion protein in vitro is measured by determining the amount of protein that remains in the soluble fraction after overnight incubation of purified samples at 4 or up to 37° C. at one or several concentrations established in a suitable buffer (e.g. 100 mM NaCl, 20 mM Tris, pH 8.0, 20% Glycerol), and it is compared to that of wild type AGT or to known AGT mutants such as “PGEG-hAGT” (Juillerat et al., Chem Biol 10:313-317, 2003).

B1: AGTM: AGT mutant Cys62Ala, Gln115Ser, Gln116His, Lys125Ala, Ala127Thr, Arg128Ala, Gly131Lys, Gly132Thr, Met134Leu, Arg135Ser, Cys150Asn, Ser151Ile, Ser152Asn, Asn157Gly, Ser159Glu, truncated after … (protein, UniProt P16455 1-207, looked up, variant C62A Q115S Q116H K125A A127T R128A G131K G132T M134L R135S C150N S151I S152N N157G S159E del183-207)
Methylated-DNA--protein-cystei …: MDKDCEMKRTTLDSPLGKLELSGCEQGLHEIKLLGKGTSAADAVEVPAPAAVLGGPEPLMQATAWLNAYFHQPEAIEEFPVPALHHPVFQQESFTRQVLWKLLKVVKFGEVISYSHLAALAGNPAATAAVKTALSGNPVPILIPCHRVVNINGAVGGYEGGLAVKEWLLAHEGHRLGKPGLG
modifications: His tag
B1: the “reaction with CPTG inside cells” value with CHO cells is on record as “does not react with CPTG”. The “time labeled protein remains stable in solution” value in data set [1] was “over 7 days”. In addition, the “activity towards O^6-benzylguanine substrates” value in data set [2] is listed as “retains the reactivity”; in data set [2] (Gln115Ser, Gln116His, Lys125Ala, Ala127Thr, Arg128Ala, Gly131Lys, Gly1), “increased reactivity”. In data set [3], the solubility in vitro entry is on record as “at least fourfold increased”.
